No end group written: not given here. Alexa Fluor 488 = Alexa Fluor 488 fluorescent dye tag
Molecular target: T1, recombinant eNOS oxygenase domain
T1 chain: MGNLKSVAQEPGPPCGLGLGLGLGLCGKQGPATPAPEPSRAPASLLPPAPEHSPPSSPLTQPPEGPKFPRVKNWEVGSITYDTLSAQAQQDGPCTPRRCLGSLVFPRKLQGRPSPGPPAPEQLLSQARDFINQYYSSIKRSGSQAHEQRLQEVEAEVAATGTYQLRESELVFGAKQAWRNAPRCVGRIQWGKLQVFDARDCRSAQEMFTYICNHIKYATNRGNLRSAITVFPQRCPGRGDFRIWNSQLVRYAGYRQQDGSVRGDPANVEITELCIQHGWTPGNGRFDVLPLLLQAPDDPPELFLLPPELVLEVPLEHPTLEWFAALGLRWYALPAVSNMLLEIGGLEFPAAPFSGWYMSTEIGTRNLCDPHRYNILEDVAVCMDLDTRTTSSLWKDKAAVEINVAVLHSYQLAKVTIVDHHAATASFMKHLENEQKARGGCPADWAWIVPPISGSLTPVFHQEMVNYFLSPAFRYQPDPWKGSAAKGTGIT
Assay: fluorescence polarisation; 1 μM recombinant oxygenase domain of eNOS incubated with peptide labelled with Alexa Fluor 488 at the C-terminus; SpectraMax M5 plate reader; triplicate measurements per concentration
Settings: both partners purified

## LSFPTTKTYF-{Alexa Fluor 488} (source: synthetic peptide (AnaSpec)) [alpha globin mimetic peptide (alpha globin binding sequence LSFPTTKTYF)]
  Kd: 16.8 nM

Source: paper PMC9613979, “Endothelial alpha globin is a nitrite reductase” (Nature Communications, 2022)
